Here are results for 41 sequences from the nanobody polyreactivity screen of Harvey et al. (2022).

The nature of this data set: yeast display, Sf9 membrane polyspecificity reagent, FACS + sequencing; frameworks hold sequencing errors. Summed up:
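Polyreactivity labels are assigned by the sorting gate from which each nanobody was recovered. The gates were low and high (top ~1%), set on anti-HA fluorescence for expression and streptavidin fluorescence for reagent binding. Before sorting, galactose-induced (36–48 hours) yeast display cells were stained for 1 hour at 4 °C with 10% biotinylated, detergent-solubilized Sf9 membrane reagent.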
Turning to “QVQLVESGGGLVQAGGSLRLSCAASGSTFDGYVMGWYRQAPGKEREFVAAISWSGGSTYYADSVKGRFTISRDNAKNTVYLQMNSLKPEDTAVYYCAARVRRQHGYWGQGTQVTVSS”, the “polyreactivity (PSR sort gate)” value is recorded as “high polyreactivity”.
The entry for “QVQLVESGGGLVQAGGSLSLSCAASGRLFARNTMGWYRQAPGKEREFVAAIDRRGGSTYYADSVKGRFTISRDNAKNTVYLQMNSLKPEDTAVYYCNKDTRRSGRMDSWGQGTEVTVSS” is “low polyreactivity”; for “QVQLVESGGGLVQAGGSLRLSCAASGSIFAYNAMGWYRQAPGKERELVASISTGDSTNYADSVKGRFTISRENAKNTDYLQMNSMKPEDTAVYYCNADSYPYYVYGSNVYWGQGSQVTVSS” it is “low polyreactivity”; for “QVQLVESGGGLVQAGGSLRLSCAASGFTIRAYVMGSYRQAPGKEREFVADISYRGGGTNYADSVKGRFTISRDNAKNTVYLQMNSLKPEDTAVYYCNARSGSSKSGYYYWGQGTQVTVSS” it is “high polyreactivity”.
The entry for “QVQLVESGGGLVQAGGSLRLSCAASGNTFVPYVMGWYRQAPGKERELVAAISRRGGSTRYADSVKGRFTISRDNAKNTVYLQMNSLNPEDTAVYYCAADGYVFALQRSRGVDFGYEYWGQGTQVTVSS” is “high polyreactivity”; for “QVQLVESGGRLVQAGGSLRLSCDASGRTFGKYALGWYRQAPGKEREFVATITRSGDSTYYADSVKGRFTISRDNAKNTVYLQMNSLKPEDTAVYNCAKDTYGVLSYFQVSREYWGQGTQVTVSS” it is “low polyreactivity”; for “QVQLVESGGGLVQAGGRLRLSCAASGSTFGDYAMGWYRQAPGKEREFVAAITWSGGSTNYADSVKGRFTISRDYAKNTVYLPMNSLKPEDTAVYYCAKPWYSSGFEYWGQGTQLTVSS” it is “high polyreactivity”.
Take “QVQLVESGGGLVQAGGSLRLSCAASGFTFAWNAMGWYRQAPGKERELVATIDVSGGSTYYADSVKGRFTISRDNAKNTVYLQMNSLKPEDTAVYYCAAVELPEGGYDYWGQGTQVTVSS”: the “polyreactivity (PSR sort gate)” value is recorded as “low polyreactivity”.
The result for “QVQLVESGGGLVQEGGSLRLSCAASGFTFSLNTMGWYRQAPGKERELVAAINSGDSTYADSVKGRFTISRDNAKNTVYLQMNSLKPEDTAVYYCNADPDWWYPYNYWGQGTQVTVSS” reads “low polyreactivity”; that for “QVQLVESGGGLVQAGGSLRLSCAASGITLRRNAMGWYRQAPGKERELVARISTTGGSTYYADSVKGRFTISRDNAKNTVYLQMNSLKPEDTAVYYCAADYVQYEFEYWGQGTQVTVSS”, “high polyreactivity”; that for “QVQLVESGGCLVQAGGSLRLSCAASGRTFYLYAMGWNRQAPGKEREFVARITFSGVSTYYADSVKGSFTISRDNAKNTVSLQMYRLKPEDTAVYYCNRVGHYGYSEGYYYWGQGTQVTVSS”, “high polyreactivity”.
The entry for “QVQLVESGGGLVQAGGSLRLSCAASGSNIGLNAMGWSRQAPGKEREWVAAITRISGRTRYADSVKRRFTISRDNAKNTVSLQMNSLKPEDTAVYYCDARFQSTNGHKYYYWGQGTQVTVSS” is “high polyreactivity”.
The result for “QVQLVESGGGLVQAGGSLRLSCAASGRNFTIYAMGWYRQAPGKERELVATISSNVGSTYYADSVKGRFTISRDNAKNTVYLQMNSLKPEDTAVYYCNVVPYLYGLDGYDYWGQGTQVTVSS” reads “high polyreactivity”; that for “QVQLVESGGGLVQARGSLRLTCAASGYIFSAYAMGWYRQAPGKERELVAAISRGGSTKYADSVKGRFTISRDNAKNTVSLQMNSVKPEDPAVYDCATVVYHRRPPRTGHEYWGQGTQVTVSS”, “high polyreactivity”.
As to “QVQLVESGGGLVQAGGSLRLSCAASGSIFPYYTMGWYRQAPGKERELVAAISGSGTSTYYADSVKGRFTISRDNAKNTVYLQMISLKPEDTAVYYCAKRFRYGYVNYYYWGQGTQVTVSS”, the “polyreactivity (PSR sort gate)” value is “low polyreactivity”.
Take “QVQLQDSGGGLVQAGGSLRLSCAASGTISDRAGMGWYRQAPAQNAIVATIDRGTNTNYADSVKGRFTISRDNAKNTVYLQMNSLKPEDTAVYNCAADGRYYIYLDYWGQGTQVTVSS”: the “polyreactivity (PSR sort gate)” value is “low polyreactivity”.
The result for “QVQLVESGGGLVQAGGSLRLSCAASGITFYEYAMGCYRQAPGTERDFVAAIDHGDSSTYYADSVKGRFTISRDNAKNTVYLQMNSLKPEDTAVYYCNADPYYDYSLNWGDYWGQGTQVTVSS” reads “low polyreactivity”; that for “QVLLVESGGGLVQAGGSLRLSCAASGSTFWRNAMGWYRQATGKERELVAVISGSGSRTFYADSVKGRFTISRDNAKNTVNLQMNSLKPEDTAVYYCAADARQYQGFDYWGQGTQVTVSS”, “high polyreactivity”.
The result for “QVHLVESGAGLVQAGGILRLSCAASGRIFAHYALGWYRQAPGKERELVAAISRGGSTKYADSVKGRFTISRDHAKNTVYFQMNSLKPEDTAVYYCARQLWGSPYGAYYAGDYWGQGTQVTVSS” reads “low polyreactivity”; that for “QVQLVESGGGLVQAGGSLRLSCAASGSIFGFYAMGWYRQAPGKERELVASISSSGDSTYYADSVKGRFTISRDNAKNTVYLQMNSLKPEDTAVYYCAAVVYDIYGYEFDYWGQGTQVTVSS”, “low polyreactivity”.
The result for “QVQLVESGGGLVQAGGSLRLSCAASGITFAQYAMGWYRQAPGTERELVAGITRSGGSTHYADSVKGRFTISRDNAKNTVYLQMNSLKPEDTAVYYCNARYPYRGKRKPSDYWGQGTQVTVSS” reads “high polyreactivity”; that for “QVQLVESGGGLVHAGGRLRLSCAASGSTFSPYAMGWYRQPPGKERELVAAITRSGGRTYYADSVKGRFTISRDNAKNTVYLQMNSLKPEDTAVYYCAARNYKPYGYYRIYDSWGQGTQVTVSS”, “high polyreactivity”; that for “QVQLVETGGGLVQAGGSLRLSCAASGGIFEINVMGWYRQAPGKERELVAGINWSGTSTYFADSVKGRFTISRDNAKNTVYLQMNTLTPEDTSVYYCAAESYYRYVVPYDYWGQGTQVTVSS”, “high polyreactivity”.
For “QVQLVESGGGLVQAGGSLRLSCPASGFIFWYNVMGWSRQAPGKERELVAAISGRGGSTYYADSVKGRFTISRDNAKNTVYLQMNSLKPEDTAVYYCNTFSYRSGAYGYWGQGTQVTVSS”, the “polyreactivity (PSR sort gate)” value is given as “high polyreactivity”.
The entry for “QEQLVDSGGGLVQAGGSLRLSCAASVRIFGRYVMGWYRQAPGKERELVAAITSRDDSTYYADSVKGRFTISRDNAKNTVYLQMNSLKPEDTAVYYCAATWGRGYDYCGQGTQVTVSS” is “high polyreactivity”.
The entry for “QVQLVESGGGLVQAGGSLRLSCAASGSIFDIYAMGWYREAPGKERELVAAISGRGGSTYADSVKGRFTISRDNAKNTVYLQMNSLKPEDTAVYYCATERHRFGGLYYWGQGTQVTVSS” is “low polyreactivity”.
The entry for “QVQLVESGGGLVQAGGSLRLSCAASGRIIDANVMGWYRQAPGKERELVAAISASAGSTSYADSVKGRFTISRDNAKNTVYLQMNSLKPEDTAVYYCAADPYQLWHYYYFGMDYWGQGTQVTVSS” is “low polyreactivity”; for “QVQLVESGGGLVQAGGSLRLSCAASGITFYQYAMGWYRQAPGTETELVAGISYSGGSTYYADSVKGRFTISRDNAKNTVYLQMNSLKPEDTAVYYCAAVQPVGLYPRTKYYYWGQGTQVTVSS” it is “high polyreactivity”; for “QVQLVESGGGLVQAGGSLRLSCAASGSTFRRYAMGWYRQAPGKERELVAGISYSGGRTYYADSVKGRFTISRDNAKNTVYLQMNSLKPEDTAVYYCAAKSFPSVRHHENYYWGQGTQVTVSS” it is “high polyreactivity”.
In the case of “QVQLVESGGGLVQAGGSLRLSCAASGRIFVRNAMGWYRQAPGKERELVAAITRTGASTYYADSVKGRFTISRDNAKNTVYLQMNSLKPEDTAVYYCAAVWGWPYWVYRYDYWGQGTQVTVSS”, the “polyreactivity (PSR sort gate)” value is given as “high polyreactivity”.
Consider “QVQLVESGGGLVQAGGSLRLSCAASGSTFARNAMGWYRQAPGKERELVAAITYSGGRTYYADSVKGRFTISRDNAKNTVYLQMNSLKPEDTAVYYCAADIVSSTDYPFDYWGQGTQVTVSS”, for which the “polyreactivity (PSR sort gate)” value is given as “low polyreactivity”.
The result for “QVQLVETGGGLVQAGGSLRLSCAASGRTFAYNAMGWYRQAPGKARELVAAITGSGGRTYYADSVKGRFTISRDNAKNTVYLQMNSLKPEETAVYYCAAEGPEIKYYYWGQGTQVTVSL” reads “low polyreactivity”; that for “QVQLVESGGGLVQAGGSLRLSCAASGRTFYVYVMGWYRQAPGKEREFVAAINYGSTYYADSVKGRFTISRDNAKNTVYLQMNSLIPEDTAVYYLGQGTQVTVSS”, “low polyreactivity”; that for “QVQLVESGGGLVQAGGSLRLSCAASGRTFYSYAMGWYRQAPGKERELVAAINTSGGRTHYADSVKGRFTISRDNAKNTVYLQMNSLKPEDTAVYYCAAEVFRTRTWEYYYWGQGTQVTVSS”, “high polyreactivity”.
The entry for “QVQLVESGGGLVQAGGSLRLSCAASGSIFGLYTMGWYRQAPGKERELVAAISGGGGSTYYADSVKGRFTISRDNAKNTVYLQMNSLKPEDTAVYYCAADLELSEWYDYWGQGTQVTVSS” is “low polyreactivity”; for “QVQLVESGGGLVQAGGSLRLSCPDSAFTFSLYGMGWYRQAPGKEREMVAAIRSGGSTNYADSVKGRFTISRDNAKNTVYLQMNSVKPEDTAVYVCATDIHSVHNNRDKHDYDYWGQGTQVTVSS” it is “low polyreactivity”.
The entry for “QVQLVESGGGLVQAGGSLRLSCAASGRTFRRNTMGWYRQATGKERAFVAAITFSGVRTYYADSVKGRFTISRDNAKNTVYLQMNSLKPEDTAVYYCANSRQYIGGFDYWGQGTQVTVSS” is “high polyreactivity”; for “QVQLVESGGGLVQAGGSLRLSCAASGRTFKYYTMGWYRQAPGKERELVAVIRGTGSTYYADSVKGRFTISRDNAKNTVYLQMNSLKPEDTAVYYCAVQVRRRYNYWGQGTQVTVSS” it is “high polyreactivity”; for “QVQLVESGGGLVQAGGSLRLSCAASGSTFTSYAMGWYRQAPGKESEFVAAISWDGDNTYADSVKGRFTISRDNAKNTVYLQMNSLKPEDTAVYYCAASHQNGNFGWGYDSWGQGTQVTVSS” it is “high polyreactivity”.
Regarding “QVQLVESGGGLVQAGGSLRLSCAASGRIFDGNAMGWYRQAPGKERELVAAISRIGGTYYADSVKGRFTISRDNAKNTVYLQMNSLKPEDTAVYYCAADPSSVGYHVEYDYWGQGTQVTVSS”, the “polyreactivity (PSR sort gate)” value is “low polyreactivity”.
The result for “QVRLVESGGGLVQAGGSLRLSCAASGSTFKTYAMGWYRQAPGIERELVAAISAGGGSTYYADSVKGRFTISRDNAKNTVYLQMNSLKPEDTAVYYCAAAYIYAGWDYEYGGQGTQVTVSS” reads “low polyreactivity”.
